Like-named read-outs stand apart in the source and are kept apart here.
T1: human LIV-1 (human, UniProt Q13433 29-755)
T1 sequence (looked up): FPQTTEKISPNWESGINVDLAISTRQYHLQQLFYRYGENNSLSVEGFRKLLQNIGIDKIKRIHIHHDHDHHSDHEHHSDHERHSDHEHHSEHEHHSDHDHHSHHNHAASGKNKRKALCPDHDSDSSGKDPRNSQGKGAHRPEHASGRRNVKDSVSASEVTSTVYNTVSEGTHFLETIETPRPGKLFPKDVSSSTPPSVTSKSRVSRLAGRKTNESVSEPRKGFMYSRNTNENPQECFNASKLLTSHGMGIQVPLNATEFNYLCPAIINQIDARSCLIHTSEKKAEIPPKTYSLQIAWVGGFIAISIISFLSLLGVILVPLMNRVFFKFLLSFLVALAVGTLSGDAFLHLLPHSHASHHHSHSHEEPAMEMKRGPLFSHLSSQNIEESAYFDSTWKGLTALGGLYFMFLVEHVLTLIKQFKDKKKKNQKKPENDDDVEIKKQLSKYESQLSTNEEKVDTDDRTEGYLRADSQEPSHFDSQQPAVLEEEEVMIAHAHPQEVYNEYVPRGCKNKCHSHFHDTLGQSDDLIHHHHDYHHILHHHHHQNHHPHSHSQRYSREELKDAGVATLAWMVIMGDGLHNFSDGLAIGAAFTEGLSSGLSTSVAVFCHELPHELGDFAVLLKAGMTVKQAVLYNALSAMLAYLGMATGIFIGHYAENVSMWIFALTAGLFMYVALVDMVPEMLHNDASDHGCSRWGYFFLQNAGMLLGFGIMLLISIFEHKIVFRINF

B1: LM-001-DXD (antibody, V domains shown)
VH: EVQLVQSGAEVKKPGASVKVSCKASGYTFTSYWIHWVRQAPGQGLEWMGTIYPGDADTRSTQKFKDRVTMTADTSTSTVYMELSSLRSEDTAVYYCARSLIHDDYDKYYFDYWGQGTTVTVSS
VL: DIQMTQSPSSLSASVGDRVTITCKARQDINKYIAWYQQKPGKAPKLLIHYTSILQPGIPSRFSGSGSGRDYTFTISSLQPEDIATYYCLQYDYFFTFGGGTKVEIK
modifications: DXD drug moiety conjugated; site and chain not stated
B2: 290F10G10.z2-MMAE (antibody, V domains shown)
VH: B1 VH
VL: B1 VL
modifications: MMAE drug moiety conjugated; site and chain not stated
notes: also called LM-001-MMAE
B3: 5D6B10 (antibody, V domains shown)
VH: QVQLKQSGPGLVQPSQSLSITCTVSGFSLTTYGIHWVRQSPGKGLEWLGVIWTGGTTDYNAAFISRLSISKDNSKSQVFFKMNSLQANDTAIYYCARGPSSYWGQGTLVTVSA
VL: DIVMTQSQKFMSTSVGDRVSVTCKASQNVDTNVVWYQQKPGQSPKALIHSASYRYSGVPDRFTGSGSGTDFTLTISNVQSEDLAEYFCQQYNNYPWTFGGGTKLEIK
notes: Tested as chimeric antibody
B4: 5D6B10.z7-Eribulin (antibody, V domains shown)
VH: QVQLVQSGGGVVQPGRSLRLSCTVSGFSLTTYGIHWVRQSPGKGLEWLGVIWTGGTTDYNAAFISRLTISKDNSKSTVYFQMNSLQAEDTAIYYCARGPSSYWGQGTLVTVSS
VL: EIVMTQSPATLSVSPGERATLSCKASQNVDTNVVWYQQKPGQSPRALIYSASYRYSGVPARFSGSGSGTEFTLTISSLQSEDFAVYFCQQYNNYPWTFGQGTKVEIK
modifications: Eribulin drug moiety conjugated; site and chain not stated
notes: Antibody-drug conjugate of 5D6B10.z7; human gamma 1/kappa
B5: 5D6B10.z7-MMAE (antibody, V domains shown)
VH: B4 VH
VL: B4 VL
modifications: MMAE drug moiety conjugated; site and chain not stated
notes: as for B4

Assays:
[1] = target: T1, human LIV-1; experiment: cell-based or functional assay
[2] = target: T1, human LIV-1; experiment: FACS, BT20/H_LIV-1 High cells
Description: (§1) Cell based binding of ADC and naked of ADC on human LIV-1 expressing cells were assessed using flow cytometry. Briefly, HEK293/H_LIV-1, both low- and high-expressing H-LIV1-positive cell lines were incubated with ADC and naked of ADC (from 100 nM, 6 folds dilution, 8 points), respectively. After incubation at 4° C. for 60 minutes, the cells were washed with FACS buffer twice, then stained with fluorescent conjugated secondary antibody at 4° C. for 30 minutes. After that the cells were washed twice and analyzed by flow cytometry.

[3] = target: T1, human LIV-1; experiment: cell-based or functional assay; remark: listed apart in the source
[4] = target: T1, human LIV-1; experiment: FACS, BT20/H_LIV-1 Low cells
Description: as §1

[5] = target: T1, human LIV-1; experiment: FACS, HEK293/H_LIV-1 cells
Description: as §1

[6] = target: T2, cynomolgus LIV-1 (cynomolgus, UniProt A0A2K5WH46 30-741); experiment: FACS, HEK293/Cyno_LIV-1 cells
Description: (§2) Cell based binding of optimal leads to different species LIV-1 expressing cells were assessed using flow cytometry. Briefly, the cells were incubated with optimal leads (from 100 nM, 6 folds dilution, 8 points). After incubation at 4° C. for 60 minutes, the cells were washed with 2% FBS/PBS buffer twice, then stained with fluorescent conjugated secondary antibody at 4° C. for 30 minutes. After that the cells were washed twice and resuspended in 80 μL of 2% FBS/PBS buffer. Fluorescent signal of binding was detected using Agilent. The EC50 was calculated using the GraphPad Software (LaJolla, CA).
Target sequence in this assay (A0A2K5WH46 entry or part of it): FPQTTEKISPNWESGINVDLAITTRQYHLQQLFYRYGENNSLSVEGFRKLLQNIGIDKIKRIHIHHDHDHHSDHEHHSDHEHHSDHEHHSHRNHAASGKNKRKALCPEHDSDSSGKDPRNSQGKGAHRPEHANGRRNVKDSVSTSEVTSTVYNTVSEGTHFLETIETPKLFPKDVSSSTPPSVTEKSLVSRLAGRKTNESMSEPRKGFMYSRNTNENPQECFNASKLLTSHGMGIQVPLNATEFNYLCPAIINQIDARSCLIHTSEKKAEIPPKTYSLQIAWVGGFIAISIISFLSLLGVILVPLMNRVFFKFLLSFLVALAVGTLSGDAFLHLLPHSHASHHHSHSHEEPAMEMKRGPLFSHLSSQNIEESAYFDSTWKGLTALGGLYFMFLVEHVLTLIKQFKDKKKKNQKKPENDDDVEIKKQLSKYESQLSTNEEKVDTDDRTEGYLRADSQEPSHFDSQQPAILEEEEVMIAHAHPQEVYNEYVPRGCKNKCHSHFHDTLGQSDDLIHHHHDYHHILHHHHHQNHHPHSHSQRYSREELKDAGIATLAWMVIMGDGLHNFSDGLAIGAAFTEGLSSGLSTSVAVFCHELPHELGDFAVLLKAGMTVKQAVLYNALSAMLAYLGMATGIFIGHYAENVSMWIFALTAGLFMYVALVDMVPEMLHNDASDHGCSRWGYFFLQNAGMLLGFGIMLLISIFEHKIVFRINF

[7] = target: T2, cynomolgus LIV-1; experiment: FACS, HEK293/Cyno_LIV-1 cells; remark: listed apart in the source
Target sequence in this assay (A0A2K5WH46 entry or part of it): as above

[8] = target: T1, human LIV-1; experiment: FACS, HEK293/H_LIV-1 cells; remark: listed apart in the source
Procedure, shortened: (§3)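 HEK293 cells over-expressing human or cyno LIV-1 incubated with chimeric Abs (from 100 nM, 5-fold dilutions, 8 points) for 60 min at 4 °C, then fluorescent secondary antibody 30 min at 4 °C; washes in 2% FBS/PBS. Binding read by flow cytometry; EC50 from the titration curve.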

[9] = target: T1, human LIV-1; experiment: cell-based or functional assay; remark: listed apart in the source
[10] = target: T2, cynomolgus LIV-1; experiment: FACS, HEK293/Cyno_LIV-1 cells; remark: listed apart in the source
Procedure, shortened: as §3

[11] = target: T1, human LIV-1; experiment: cell-based or functional assay; remark: listed apart in the source
[12] = target: rhesus LIV-1 (rhesus, UniProt H9FSJ2 30-735); experiment: FACS, HEK293/Rhe_LIV-1 cells
Chain of rhesus LIV-1 (H9FSJ2 entry or part of it): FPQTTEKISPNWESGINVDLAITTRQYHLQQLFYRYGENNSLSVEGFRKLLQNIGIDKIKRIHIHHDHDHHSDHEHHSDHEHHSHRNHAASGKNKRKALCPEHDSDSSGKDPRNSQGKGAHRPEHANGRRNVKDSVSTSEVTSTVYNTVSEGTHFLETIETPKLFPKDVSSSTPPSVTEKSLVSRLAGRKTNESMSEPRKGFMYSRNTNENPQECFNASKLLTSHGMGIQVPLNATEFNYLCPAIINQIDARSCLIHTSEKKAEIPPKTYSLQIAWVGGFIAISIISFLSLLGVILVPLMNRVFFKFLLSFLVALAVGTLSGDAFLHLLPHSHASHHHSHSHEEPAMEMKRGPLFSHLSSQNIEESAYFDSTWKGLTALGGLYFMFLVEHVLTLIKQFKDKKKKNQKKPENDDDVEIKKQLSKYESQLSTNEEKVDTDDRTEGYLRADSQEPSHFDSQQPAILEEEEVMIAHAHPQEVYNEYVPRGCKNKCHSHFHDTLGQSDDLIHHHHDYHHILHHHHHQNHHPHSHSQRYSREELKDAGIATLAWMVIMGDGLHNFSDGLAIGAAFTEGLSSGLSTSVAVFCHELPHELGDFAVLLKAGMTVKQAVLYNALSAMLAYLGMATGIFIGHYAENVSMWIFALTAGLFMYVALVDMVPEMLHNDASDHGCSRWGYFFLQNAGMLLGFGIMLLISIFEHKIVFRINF
Description: Humanized antibodies 5D6B10.z7, 124H4D11.p2.z4 and 290F10G10.p1.z2 were selected for further testing. In this example, FACS cross binding of these selected antibodies to LIV-1 of different species were assessed using flow cytometry.
as §2

[13] = target: T1, human LIV-1; experiment: FACS, HEK293/H_LIV-1 cells; remark: listed apart in the source
Description: In this example, cell based binding of humanized antibodies (hu Abs) on human LIV-1-expressing cells were assessed using flow cytometry.
as §1, with “hu-Abs” for “ADC and naked of ADC”, “the HEK293/H_LIV-1 cells” for “HEK293/H_LIV-1, both low- and high-expressing H-LIV1-positive cell lines”, “points).” for “points), respectively.”

[14] = target: T1, human LIV-1; experiment: cell-based or functional assay; remark: listed apart in the source

Binder | Bottom (% viability), BT20/H_LIV1-High expression [1] [%] | Bottom (% viability), BT20/H_LIV1-Low expression [1] [%] | EC50 [2] [nM] | Top (MFI) [2] [MFI] | Min cell viability %, BT20/H_LIV-1 High [3] [%] | Min cell viability %, BT20/H_LIV-1 Low [3] [%] | Min cell viability %, HEK293/H_LIV-1 [3] [%] | EC50 [4] [nM] | Top (MFI) [4] [MFI] | EC50 [5] [nM] | Top (MFI) [5] [MFI] | also measured
B1 | 43.7 | 58.9 |  |  |  |  |  |  |  |  |  | 
B2 | 29.1 | 46.8 | 0.66 | 20800 | 14.7 | 37.9 | 15.3 | 0.68 | 3570 | 0.34 | 19100 | 
B3 |  |  |  |  |  |  |  |  |  |  |  | EC50 [6]: 0.53 nM; Top (MFI) [6]: 13900 MFI; EC50 [7]: 0.39 nM; Top (MFI) [7]: 25700 MFI; EC50 [8]: 0.21 nM; Top (MFI) [8]: 70100 MFI; ADCC reporter EC50 [9]: 0.3 nM; ADCC reporter Top (RFU) [9]: 121000 RFU; EC50 [10]: 0.17 nM; Top (MFI) [10]: 41100 MFI; Internalization EC50 [11]: 12.7 nM; Internalization Top (RFU) [11]: 145000 RFU; EC50 [12]: 0.27 nM; Top (MFI) [12]: 38400 MFI; EC50 [13]: 0.29 nM; Top (MFI) [13]: 61900 MFI; Cell viability(%) [14]: 16.4%; Cytotoxicity IC50 [14]: 1.55 nM
B4 |  |  | 0.87 | 154000 | 31.5 | 42.9 | 21.2 | 0.5 | 37200 | 0.47 | 98700 | 
B5 |  |  | 0.98 | 149000 | 28.4 | 43.5 | 15 | 0.5 | 35300 | 0.51 | 96400 | 

From patent US20240325555A1 (LANOVA MEDICINES, published 2024)
